The values that follow are results of earlier work, collected in patent publication US9879249B2, “Aldehyde-tagged protein-based drug carriers and methods of use” (Redwood Bioscience, Inc., priority 2009, dated 2018).

The conditions of this series: calcitonin peptide alone, unconjugated.

Calcitonin: the absorption half-life was 10 to 15 min and the elimination half-life is 50 to 80 min.
